According to paper PMC5432123:
Changes are numbered by the printed parent chain. Names may count otherwise. Each block holds one binder with its values, some of them ahead of it.

Molecular target: microtubules (tubulin)

- in vitro MT gliding assay, speed of MT gliding (n = 25): 1.68 mμ/sec
B1: UNC-104 (1-371 a.a), truncated version (domain or fragment)
chain: MSSVKVAVRVRPFNQREISNTSKCVLQVNGNTTTINGHSINKENFSFNFDHSYWSFARNDPHFITQKQVYEELGVEMLEHAFEGYNVCIFAYGQTGSGKSYTMMGKANDPDEMGIIPRLCNDLFARIDNNNDKDVQYSVEVSYMEIYCERVKDLLNPNSGGNLRVREHPLLGPYVDDLTKMAVCSYHDICNLMDEGNKARTVAATNMNSTSSRSHAVFTIVLTQKRHCADSNLDTEKHSKISLVDLAGSERANSTGAEGQRLKEGANINKSLTTLGLVISKLAEESTKKKKSNKGVIPYRDSVLTWLLRENLGGNSKTAMLAALSPADINFDETLSTLRYADRAKQIVCQAVVNEDPNAKLIRELNEEVIK

- in vitro MT gliding assay, speed of MT gliding (n = 25): 1.35 μm/sec
B2: UNC-104 (1-371 a.a) V6I, truncated version (domain or fragment)
chain: B1 chain with V6I
